Results reported in the supplement of paper PMC10724198.
± gives the standard deviation of the averaged measurements.
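Note: PSI is a weighted mean of sequencing reads over stability bins, variants kept only with over 10 reads, mCherry proximal and sfGFP distal, peptide attached via GGGS linker.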

The sequences below were run on Saccharomyces cerevisiae (assay: protein stability index of tFT-peptide fusion (C-terminal peptide) (PSI (0-1 scale)); higher = more stable (slower turnover)). Conditions: genetic background: wild type; temperature: 37 C.
Description: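 MPS profiling in S. cerevisiae of the tFT-X12 degron library: putative degron peptides plus stable controls, 12 aa, fused to the C-terminus of a sfGFP-mCherry timer. Cells are FACS-sorted into 8 mCherry/sfGFP bins and deep-sequenced. PSI runs from 0 (unstable) to 1 (stable). Backgrounds are wild type, das1Δ and doa10Δ at 30 °C, and wild type, das1Δ, cdc34-1 and cdc53-1 at 37 °C; 2-3 technical replicates each.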
With SWLLLVFPLSVC the protein stability index was 0.113 ± 0.0063. With TCFVKLLPFLVL the protein stability index was 0.5482 ± 0.0021. TCRASLRRIVVA was tested, and the protein stability index was 0.459 ± 0.015. Sequence TFRVLREIILTA has a protein stability index of 0.277 ± 0.0079. TPPFFDIFVVLL showed a protein stability index of 0.616 ± 0.043. With TPPIRCRLVRFL the protein stability index was 0.496 ± 0.0056. TSARPFLYSFRP showed a protein stability index of 0.705 ± 0.027. Work on TVLPCVLLFLRG yielded a protein stability index of 0.603 ± 0.03. In the case of VAVFFGCCVKVG, the protein stability index is reported as 0.141 ± 0.019. Work on VAVGFVLGLCVV yielded a protein stability index of 0.431 ± 0.012. With VCFLLLLPALLI the protein stability index was 0.512 ± 0.027. VCNQVPGVIWFC was tested, and the protein stability index was 0.61183 ± 8.6e-05. Sequence VCRFLVSVFSCV has a protein stability index of 0.5167 ± 0.0027. VCRVAAWLGWFV was tested, and the protein stability index was 0.1636 ± 0.0013. VEFSLYVVFFLV gave a protein stability index of 0.154 ± 0.0063. In the case of VFCPRACWEFVG, the protein stability index is reported as 0.213 ± 0.0029. In the case of VFCSRSLISVVS, the protein stability index is reported as 0.303 ± 0.011. In the case of VFFCLCLCLFFV, the protein stability index is reported as 0.45 ± 0.036. VFFGCIWSIVYN gave a protein stability index of 0.377 ± 0.011. VFGARLFLIRLV showed a protein stability index of 0.1767 ± 0.00049. Work on VFLNVLDNNRLC yielded a protein stability index of 0.622 ± 0.028. Work on VFLRFVLSFFLL yielded a protein stability index of 0.489 ± 0.0065. With VFLSLVFFFIIT the protein stability index was 0.392 ± 0.021. In the case of VFRVLLSLFSTL, the protein stability index is reported as 0.4804 ± 0.0029. In the case of VFRYWCGIFCLT, the protein stability index is reported as 0.6715 ± 0.0057. VFSAGFSTISLF was tested, and the protein stability index was 0.741 ± 0.011. VFSWLAFGFFCS showed a protein stability index of 0.642 ± 0.033. Sequence VGELYRLRKLHV has a protein stability index of 0.506 ± 0.018. VGHVFLGVVWLV gave a protein stability index of 0.0863 ± 0.011. VGLRLSVIFVVI was tested, and the protein stability index was 0.391 ± 0.049. For VGVIGWGVLGVG, the protein stability index was 0.536 ± 0.0097. VGVVGVRVLVVV was tested, and the protein stability index was 0.17315 ± 8e-05. Work on VIGSFVRVFGIM yielded a protein stability index of 0.6657 ± 0.00035. Sequence VILMFELFGVRI has a protein stability index of 0.422 ± 0.054. Work on VLCHLVLYVGDK yielded a protein stability index of 0.534 ± 0.029. Sequence VLDLLRHGFLWQ has a protein stability index of 0.7119 ± 0.0068. In the case of VLFFVLGVLVCL, the protein stability index is reported as 0.441 ± 0.026. Work on VLFIKKTLMRIQ yielded a protein stability index of 0.537 ± 0.045. VLFVLFASWFPR gave a protein stability index of 0.529 ± 0.047. VLFVVLVASGLG showed a protein stability index of 0.4012 ± 0.0037. Sequence VLPQSVWILVRV has a protein stability index of 0.1936 ± 0.0014. With VLSFWAFLFLLF the protein stability index was 0.3785 ± 0.0022. For VLSWRAWGESGV, the protein stability index was 0.382 ± 0.007. VMFWRGVWLSFC showed a protein stability index of 0.335 ± 0.011. In the case of VNTRIVVRMRHL, the protein stability index is reported as 0.529 ± 0.0082. In the case of VNWGFLVLLFQL, the protein stability index is reported as 0.4111 ± 0.00064. Sequence VPLHPPPTVPYI has a protein stability index of 0.7038 ± 0.0066. In the case of VPLVQRARLRLF, the protein stability index is reported as 0.206 ± 0.028. VPRLFSVIVVPV showed a protein stability index of 0.536 ± 0.018. Sequence VRFRLLNVLASA has a protein stability index of 0.5305 ± 0.0031. For VRGSFRRCLSIA, the protein stability index was 0.325 ± 0.011. In the case of VRRSVGGWSKVG, the protein stability index is reported as 0.505 ± 0.013. VRSTFVLGRWFA was tested, and the protein stability index was 0.312 ± 0.083. VSFHFLLLVPCC was tested, and the protein stability index was 0.0701 ± 0.0096. For VSFHLGVIFALS, the protein stability index was 0.46 ± 0.013. VSFLLLSYLCSF was tested, and the protein stability index was 0.322 ± 0.0035. VSWDMLYFWFIQ showed a protein stability index of 0.554 ± 0.016. In the case of VSYAVIVLVFKG, the protein stability index is reported as 0.339 ± 0.04. With VTVWLISRVTGL the protein stability index was 0.549 ± 0.018. Sequence VVCFGCLAFFLG has a protein stability index of 0.533 ± 0.027. Work on VVFILLFFVFCR yielded a protein stability index of 0.314 ± 0.022. For VVGITIMVFIIT, the protein stability index was 0.326 ± 0.046. For VVIGAVLFVVVR, the protein stability index was 0.25 ± 0.005. VVIWGMLLCGLG was tested, and the protein stability index was 0.487 ± 0.016. In the case of VVTICVASWSGL, the protein stability index is reported as 0.532 ± 0.012. With VVTVCIIRLAWG the protein stability index was 0.342 ± 0.019. With VVVLRRVIEVMQ the protein stability index was 0.413 ± 0.012. In the case of VVVRFCLGICFC, the protein stability index is reported as 0.41 ± 0.012. Sequence VWAWAVVVFVVL has a protein stability index of 0.385 ± 0.046. Sequence VWEKGVCGRMVG has a protein stability index of 0.7276 ± 0.0072. In the case of VWSFFTSFIRYI, the protein stability index is reported as 0.114 ± 0.0081. With VWVISLCIGGGG the protein stability index was 0.3796 ± 0.0035. VWVLLCKYVILL showed a protein stability index of 0.268 ± 0.023. For VWWGVGVWLLVG, the protein stability index was 0.0755 ± 0.036. VYVVCFRLGCWV showed a protein stability index of 0.371 ± 0.0082. With WAFRLWWFFCLV the protein stability index was 0.273 ± 0.0095. Work on WALPRILFLRLT yielded a protein stability index of 0.0911 ± 0.021. With WDSCVGRRGIVA the protein stability index was 0.6038 ± 0.0016.

Each sequence was assayed on Saccharomyces cerevisiae in the same assay as above. Conditions: genetic background: wild type; temperature: 30 C.
SWLLLVFPLSVC showed a protein stability index of 0.191 ± 0.016. TCFVKLLPFLVL was tested, and the protein stability index was 0.546 ± 0.067. Sequence TCRASLRRIVVA has a protein stability index of 0.358 ± 0.034. TFRVLREIILTA was tested, and the protein stability index was 0.249 ± 0.0078. TPPFFDIFVVLL showed a protein stability index of 0.46 ± 0.037. TPPIRCRLVRFL was tested, and the protein stability index was 0.335 ± 0.029. TSARPFLYSFRP showed a protein stability index of 0.00961 ± 0.014. With TVLPCVLLFLRG the protein stability index was 0.485 ± 0.013. Sequence VAVFFGCCVKVG has a protein stability index of 0.156 ± 0.026. With VAVGFVLGLCVV the protein stability index was 0.447 ± 0.011. VCFLLLLPALLI showed a protein stability index of 0.432 ± 0.053. VCNQVPGVIWFC gave a protein stability index of 0.481 ± 0.022. For VCRFLVSVFSCV, the protein stability index was 0.439 ± 0.019. Sequence VCRVAAWLGWFV has a protein stability index of 0.175 ± 0.025. VEFSLYVVFFLV showed a protein stability index of 0.211 ± 0.0088. In the case of VFCPRACWEFVG, the protein stability index is reported as 0.222 ± 0.034. VFCSRSLISVVS was tested, and the protein stability index was 0.313 ± 0.027. VFFCLCLCLFFV was tested, and the protein stability index was 0.368 ± 0.031. VFFGCIWSIVYN gave a protein stability index of 0.2962 ± 0.0012. VFGARLFLIRLV was tested, and the protein stability index was 0.223 ± 0.0077. VFLNVLDNNRLC was tested, and the protein stability index was 0.464 ± 0.037. In the case of VFLRFVLSFFLL, the protein stability index is reported as 0.4516 ± 0.001. With VFLSLVFFFIIT the protein stability index was 0.367 ± 0.026. With VFRVLLSLFSTL the protein stability index was 0.408 ± 0.0095. VFRYWCGIFCLT was tested, and the protein stability index was 0.478 ± 0.07. VFSAGFSTISLF was tested, and the protein stability index was 0.704 ± 0.39. Sequence VFSWLAFGFFCS has a protein stability index of 0.557 ± 0.091. In the case of VGELYRLRKLHV, the protein stability index is reported as 0.313 ± 0.035. VGHVFLGVVWLV was tested, and the protein stability index was 0.163 ± 0.013. VGLRLSVIFVVI was tested, and the protein stability index was 0.372 ± 0.038. For VGVIGWGVLGVG, the protein stability index was 0.5 ± 0.01. With VGVVGVRVLVVV the protein stability index was 0.2026 ± 0.0015. Work on VIGSFVRVFGIM yielded a protein stability index of 0.512 ± 0.12. VILMFELFGVRI was tested, and the protein stability index was 0.331 ± 0.029. Work on VLCHLVLYVGDK yielded a protein stability index of 0.4359 ± 0.0017. VLDLLRHGFLWQ showed a protein stability index of 0.761 ± 0.071. For VLFFVLGVLVCL, the protein stability index was 0.397 ± 0.043. Work on VLFIKKTLMRIQ yielded a protein stability index of 0.396 ± 0.0084. Work on VLFVLFASWFPR yielded a protein stability index of 0.487 ± 0.0066. Work on VLFVVLVASGLG yielded a protein stability index of 0.299 ± 0.023. Sequence VLPQSVWILVRV has a protein stability index of 0.2609 ± 0.0026. Sequence VLSFWAFLFLLF has a protein stability index of 0.335 ± 0.011. With VLSWRAWGESGV the protein stability index was 0.445 ± 0.024. VMFWRGVWLSFC was tested, and the protein stability index was 0.268 ± 0.03. VNTRIVVRMRHL was tested, and the protein stability index was 0.433 ± 0.014. VNWGFLVLLFQL showed a protein stability index of 0.324 ± 0.011. With VPLHPPPTVPYI the protein stability index was 0.704 ± 0.03. VPLVQRARLRLF showed a protein stability index of 0.146 ± 0.025. In the case of VPRLFSVIVVPV, the protein stability index is reported as 0.488 ± 0.052. VRFRLLNVLASA gave a protein stability index of 0.468 ± 0.056. VRGSFRRCLSIA was tested, and the protein stability index was 0.1981 ± 0.0011. With VRRSVGGWSKVG the protein stability index was 0.339 ± 0.022. With VRSTFVLGRWFA the protein stability index was 0.228 ± 0.062. VSFHFLLLVPCC showed a protein stability index of 0.105 ± 0.082. VSFHLGVIFALS showed a protein stability index of 0.39 ± 0.0086. For VSFLLLSYLCSF, the protein stability index was 0.266 ± 0.012. VSWDMLYFWFIQ gave a protein stability index of 0.416 ± 0.002. VSYAVIVLVFKG gave a protein stability index of 0.329 ± 0.037. Work on VTVWLISRVTGL yielded a protein stability index of 0.435 ± 0.0085. VVCFGCLAFFLG showed a protein stability index of 0.497 ± 0.0057. In the case of VVFILLFFVFCR, the protein stability index is reported as 0.294 ± 0.019. VVGITIMVFIIT gave a protein stability index of 0.333 ± 0.069. In the case of VVIGAVLFVVVR, the protein stability index is reported as 0.29 ± 0.012. VVIWGMLLCGLG was tested, and the protein stability index was 0.44 ± 0.029. For VVTICVASWSGL, the protein stability index was 0.42 ± 0.0091. In the case of VVTVCIIRLAWG, the protein stability index is reported as 0.367 ± 0.036. Sequence VVVLRRVIEVMQ has a protein stability index of 0.342 ± 0.0062. VVVRFCLGICFC was tested, and the protein stability index was 0.388 ± 0.011. VWAWAVVVFVVL showed a protein stability index of 0.241 ± 0.009. VWEKGVCGRMVG gave a protein stability index of 0.703 ± 0.0081. For VWSFFTSFIRYI, the protein stability index was 0.169 ± 0.028. VWVISLCIGGGG was tested, and the protein stability index was 0.312 ± 0.013. With VWVLLCKYVILL the protein stability index was 0.218 ± 0.0091. In the case of VWWGVGVWLLVG, the protein stability index is reported as 0.147 ± 0.04. In the case of VYVVCFRLGCWV, the protein stability index is reported as 0.297 ± 0.036. WAFRLWWFFCLV gave a protein stability index of 0.375 ± 0.034. With WALPRILFLRLT the protein stability index was 0.169 ± 0.028. Work on WDSCVGRRGIVA yielded a protein stability index of 0.4869 ± 0.0015.
